Test results taken from publication PMC3320896.

Biological target: recombinant Hepatitis B surface antigen (rHBsAg) virus-like particle, S form of HBsAg (Hepatitis B virus)
Assay: cryo-EM structure; redox-treated rHBsAg VLPs in vitrified ice; 3D reconstruction with octahedral symmetry imposed, nominal resolution ~1.5 nm (FSC0.5); monomers counted from the volume of segmented protein density

Question: For “recombinant Hepatitis B surface antigen (rHBsAg) virus-like particle, S form of HBsAg (natural protein)”, which stoichiometry N (protein monomers per particle) is on record?
Answer: The stoichiometry N (protein monomers per particle) was 96.
